Data from patent publication US20180327723A1, “Production of Glycosylated Nootkatol in Recombinant Hosts” (Evolva SA, priority 2015, published 2018).

B1: UGT85A1: UDP-glycosyltransferase, Arabidopsis thaliana, SEQ ID NO: 9, SEQ ID NO: 10 (protein, listed as Arabidopsis thaliana)
chain: MGSQIIHNSQKPHVVCVPYPAQGHINPMMRVAKLLHARGFYVTFVNTVYNHNRFLRSRGSNALDGLPSFRFESIADGLPETDMDATQDITALCESTMKNCLAPFRELLQRINAGDNVPPVSCIVSDGCMSFTLDVAEELGVPEVLFWTTSGCAFLAYLHFYLFIEKGLCPLKDESYLTKEYLEDTVIDFIPTMKNVKLKDIPSFIRTTNPDDVMISFALRETERAKRASAIILNTFDDLEHDVVHAMQSILPPVYSVGPLHLLANREIEEGSEIGMMSSNLWKEEMECLDWLDTKTQNSVIYINFGSITVLSVKQLVEFAWGLAGSGKEFLWVIRPDLVAGEEAMVPPDFLMETKDRSMLASWCPQEKVLSHPAIGGFLTHCGWNSILESLSCGVPMVCWPFFADQQMNCKFCCDEWDVGIEIGGDVKREEVEAVVRELMDGEKGKKMREKAVEWQRLAEKATEHKLGSSVMNFETVVSKFLLGQKSQD
B2: UGT76E12: UDP-glycosyltransferase, Arabidopsis thaliana, SEQ ID NO: 17, SEQ ID NO: 18 (protein, listed as Arabidopsis thaliana)
chain: MQVLGMEEKPARRSVVLVPFPAQGHISPMMQLAKTLHLKGFSITVVQTKFNYFSPSDDFTHDFQFVTIPESLPESDFKNLGPIQFLFKLNKECKVSFKDCLGQLVLQQSNEISCVIYDEFMYFAEAAAKECKLPNIIFSTTSATAFACRSVFDKLYANNVQAPLKETKGQQEELVPEFYPLRYKDFPVSRFASLESIMEVYRNTVDKRTASSVIINTASCLESSSLSFLQQQQLQIPVYPIGPLHMVASAPTSLLEENKSCIEWLNKQKVNSVIYISMGSIALMEINEIMEVASGLAASNQHFLWVIRPGSIPGSEWIESMPEEFSKMVLDRGYIVKWAPQKEVLSHPAVGGFWSHCGWNSTLESIGQGVPMICRPFSGDQKVNARYLECVWKIGIQVEGELDRGVVERAVKRLMVDEEGEEMRKRAFSLKEQLRASVKSGGSSHNSLEEFVHFIRTL
B3: UGT73C3: UDP-glycosyltransferase, Arabidopsis thaliana, SEQ ID NO: 15, SEQ ID NO: 16 (protein, listed as Arabidopsis thaliana)
chain: MATEKTHQFHPSLHFVLFPFMAQGHMIPMIDIARLLAQRGVTITIVTTPHNAARFKNVLNRAIESGLAINILHVKFPYQEFGLPEGKENIDSLDSTELMVPFFKAVNLLEDPVMKLMEEMKPRPSCLISDWCLPYTSIIAKNFNIPKIVFHGMGCFNLLCMHVLRRNLEILENVKSDEEYFLVPSFPDRVEFTKLQLPVKANASGDWKEIMDEMVKAEYTSYGVIVNTFQELEPPYVKDYKEAMDGKVWSIGPVSLCNKAGADKAERGSKAAIDQDECLQWLDSKEEGSVLYVCLGSICNLPLSQLKELGLGLEESRRSFIWVIRGSEKYKELFEWMLESGFEERIKERGLLIKGWAPQVLILSHPSVGGFLTHCGWNSTLEGITSGIPLITWPLFGDQFCNQKLVVQVLKAGVSAGVEEVMKWGEEDKIGVLVDKEGVKKAVEELMGDSDDAKERRRRVKELGELAHKAVEKGGSSHSNITLLLQDIMQLAQFKN
B4: UGT76E1: UDP-glycosyltransferase, Arabidopsis thaliana, SEQ ID NO: 11, SEQ ID NO: 12 (protein, listed as Arabidopsis thaliana)
chain: MEELGVKRRIVLVPVPAQGHVTPIMQLGKALYSKGFSITVVLTQYNRVSSSKDFSDFHFLTIPGSLTESDLKNLGPFKFLFKLNQICEASFKQCIGQLLQEQGNDIACVVYDEYMYFSQAAVKEFQLPSVLFSTTSATAFVCRSVLSRVNAESFLLDMKDPKVSDKEFPGLHPLRYKDLPTSAFGPLESILKVYSETVNIRTASAVIINSTSCLESSSLAWLQKQLQVPVYPIGPLHIAASAPSSLLEEDRSCLEWLNKQKIGSVIYISLGSLALMETKDMLEMAWGLRNSNQPFLWVIRPGSIPGSEWTESLPEEFSRLVSERGYIVKWAPQIEVLRHPAVGGFWSHCGWNSTLESIGEGVPMICRPFTGDQKVNARYLERVWRIGVQLEGELDKGTVERAVERLIMDEEGAEMRKRVINLKEKLQASVKSRGSSFSSLDNFVNSLKMMNFM
B5: UGT73E1: UDP-glycosyltransferase, Stevia rebaudiana, SEQ ID NO: 13, SEQ ID NO: 14 (protein, listed as Stevia rebaudiana)
chain: MSPKMVAPPTNLHFVLFPLMAQGHLVPMVDIARILAQRGATVTIITTPYHANRVRPVISRAIATNLKIQLLELQLRSTEAGLPEGCESFDQLPSFEYWKNISTAIDLLQQPAEDLLRELSPPPDCIISDFLFPWTTDVARRLNIPRLVFNGPGCFYLLCIHVAITSNILGENEPVSSNTERVVLPGLPDRIEVTKLQIVGSSRPANVDEMGSWLRAVEAEKASFGIVVNTFEELEPEYVEEYKTVKDKKMWCIGPVSLCNKTGPDLAERGNKAAITEHNCLKWLDERKLGSVLYVCLGSLARISAAQAIELGLGLESINRPFIWCVRNETDELKTWFLDGFEERVRDRGLIVHGWAPQVLILSHPTIGGFLTHCGWNSTIESITAGVPMITWPFFADQFLNEAFIVEVLKIGVRIGVERACLFGEEDKVGVLVKKEDVKKAVECLMDEDEDGDQRRKRVIELAKMAKIAMAEGGSSYENVSSLIRDVTETVRAPH

Columns and labels:
[1] = test system: wild-type MATa strain ATCC 28383; assay: Growth-inhibitory effect on yeast, cell viability by plating (CFU); type: cell-based, S. cerevisiae; settings: 0.125 g/L, 5 h of exposure, plated on YPD
Description: A 20 mL seed culture of wild-type MATa strain ATCC 28383 was grown in SD-THUL medium (0.67 Bacto yeast nitrogen base without amino acids, 2% glucose, 0.14% yeast synthetic drop-out medium without uracil, tryptophan, histidine and leucine). The culture was grown for 24 h, and 2.5 mL of the culture was used to inoculate 7 equal batches of 50 mL fermentation medium (2% (NH4)2SO4, 2% KH2PO4, 0.1% NaCl, 0.6% MgSO4.7H2O, 0.4% yeast extract, 1 mL mineral solution [FeSO4.7H2O 0.028%, ZnSO4.7H2O 0.029%, CuSO4.5H2O 0.008%, Na2MoO4.2H2O 0.024%, CoCl2.6H2O 0.024%, MnSO4.H2O 0.017%, HCl 1 mL], 0.5 mL 50% glucose, 1.5 mL vitamin solution [biotin 0.001%, Ca-pantothenate 0.012%, inositol 0.06%, pyridoxine-HCl 0.012%, thiamine-HCl 0.012%], and 0.5 mL 10% CaCl2) in 250 mL baffled Ehrlenmeyer flasks.
In 6 flasks, nootkatol or glycosylated nootkatol (nootkatol+1 glucose) were added in final concentrations of 0.06, 0.125, and 0.5 g/L. The 7th flask was used as a control and was not treated with nootkatol or glycosylated nootkatol. The cultures were grown at 28° C. and 170 rpm, and the cell viability was measured after 5 h of exposure by plating 100 μL of 1/1000 dilution of cell culture on yeast extract peptone dextrose (YPD) plates.

[2] = test system: yeast; settings: Gavira et al., 2013, Metab Eng. 18:25-35; cited from earlier work
[3] = In vitro glycosylation of nootkatol by purified UGTs with UDP-glucose, LC-MS; type: biochemical; settings: 5 mM nootkatol, 15 mM UDP-glucose, 5 μL purified enzyme, overnight at 30° C.
Text: UGT85A1 (SEQ ID NO:9, SEQ ID NO:10), UGT76E1 (SEQ ID NO:11, SEQ ID NO:12), UGT73E1 (SEQ ID NO:13, SEQ ID NO:14), UGT73C3 (SEQ ID NO:15, SEQ ID NO:16), and UGT76E12 (SEQ ID NO:17, SEQ ID NO:18) were each cloned into a T7 promoter-based vector comprising a sequence coding for an N-terminal 6×His-tag. The vector backbone was linearized with restriction endonucleases, the UGT genes were amplified by PCR, and the constructs were verified by DNA sequencing.
Competent E. coli expression cells were transformed individually with a UGT-comprising plasmid. A colony from each transformation was inoculated individually in 6 mL NZCYM broth comprising an antibiotic. The pre-culture was incubated overnight at 37° C. and 220 rpm and used to inoculate 100 mL NZYCM broth with an antibiotic at an initial OD600 of 0.2. After growth at 37° C. until an OD600 of 0.6-0.8, the cells were induced for protein expression using 0.2 mM IPTG, followed by incubation at 20° C. and 120 rpm for 18-20 h.
Cells were harvested by centrifugation at approximately 4° C. and approximately 4000 g for 20 min and resuspended in 3 mL 10 mM Tris-HCl, pH 8.0 plus protease inhibitor. After cell disruption, 6 mL 1×HIS binding buffer (20 mM Tris-HCl, pH 7.5, 500 mM NaCl, and 10 mM imidazole) were added to the suspension. Cell crude extracts were centrifuged at 4° C. and approximately 4000 g for 30 min. The supernatant was collected, and 300 μL of nickel beads were added; the mixture was incubated with gentle mixing at 4° C. for 2 h. The mixture was centrifuged at 4° C. and approximately 1000 g for 3 min, the supernatant was removed, and the beads were resuspended with 3 mL 1×HIS binding buffer. This step was performed twice. The beads were then resuspended and mixed gently in 500 μL 1×HIS Binding Buffer. The mixture was then transferred into a cold Eppendorf tube, centrifuged at 4° C. and approximately 1000 g, and the supernatant was removed. The beads were resuspended in 400 μL elution buffer (20 mM Tris-HCl, pH 7.5, 500 mM NaCl, 250 mM imidazole), mixed gently, centrifuged at 4° C. and approximately 1000 g for 3 min, and the supernatant was collected. This step was performed three times to collect three elution fractions. Glycerol was added in a 1:1 ratio to each elution tube and protein solutions were stored at −80° C. The fractions were analyzed by SDS-PAGE and Western Blot. The fraction comprising the UGT with the highest purity was used for the subsequent in vitro assay.
UGT85A1 (SEQ ID NO:9, SEQ ID NO:10), UGT76E1 (SEQ ID NO:11, SEQ ID NO:12), UGT73E1 (SEQ ID NO:13, SEQ ID NO:14), UGT73C3 (SEQ ID NO:15, SEQ ID NO:16), and UGT76E12 (SEQ ID NO:17, SEQ ID NO:18) were employed for in vitro glycosylation of nootkatol in the presence of the sugar donor, UDP-glucose. The reaction was carried out in a final volume of 50 μL buffer (100 mM Tris, pH 8.0, 5 mM MgCl2, 1 mM KCl), 5 mM nootkatol in DMSO, 15 mM UDP-glucose, and 5 μL purified enzyme solution. The reaction was incubated overnight at 30° C. The sample was analyzed by LC-MS on a BEH C18-column (100 mm×2.1 mm, 5 μm). Mobile phase A was 0.1% formic acid in water; mobile phase B was 0.1% formic acid in acetonitrile. B concentration gradient was 0-1 min, 1%; 1-5 min, 100%; 5-7 min, 100%; 7-7.1 min, 1%; 7.1-9 min, 1%. The injection volume was 5 μL. […]

| Molecule | cell death [1] [%] | cellular toxicity in yeast [2] | Area-under-curve of the peak of glycosylated nootkatol (nootkatol+1 glucose) produced in vitro [3] |
| --- | --- | --- | --- |
| C=C(C)C1CCC2=CC(O)CC(C)C2(C)C1 (centres unmarked) [nootkatol, 2,3,4,4a,5,6,7,8-octahydro-6-isopropenyl-4,4a-dimethyl-2-naphtalenol] | ~99 | cellular toxicity |  |
| C=C(C)[C@@H]1CCC2=CC(=O)C[C@@H](C)[C@]2(C)C1 [nootkatone, 4,4a,5,6,7,8-hexahydro-6-isopropenyl-4,4a-dimethyl-2(3H)-napthalenone] |  | cellular toxicity |  |
| B1 |  |  | 1632282 |
| B2 |  |  | 820053 |
| B3 |  |  | 1211635 |
| B4 |  |  | 1566336 |
| B5 |  |  | 1288384 |
